Test results: publication PMC3846777, “Characteristics and Function of Sulfur Dioxygenase in Echiuran Worm Urechis unicinctus” (PLoS ONE, 2013)
Substitutions are numbered along the chain they refer to. Numbers in names are those of the source.

Tests used:
Assay in all cases: oxygen consumption, Clark-type oxygen electrode (Oxytherm)
Type in all cases: biochemical, Urechis unicinctus
Settings in all cases: 0.1 M potassium phosphate pH 7.4, 25°C, O2 co-substrate, GSS^− prepared from GSH and acetonic sulfur
[1] = substrate: N[C@@H](CCC(=O)N[C@@H](CSS)C(=O)NCC(=O)O)C(=O)O
[2] = substrate: N[C@@H](CCC(=O)N[C@@H](CSS)C(=O)NCC(=O)O)C(=O)O; remark: listed apart in the source
Excerpt: oxygen consumption, Clark-type oxygen electrode (Oxytherm) on Del-1

[3] = substrate: N[C@@H](CCC(=O)N[C@@H](CSS)C(=O)NCC(=O)O)C(=O)O; remark: listed apart in the source
Excerpt: oxygen consumption, Clark-type oxygen electrode (Oxytherm) on Del-2

[4] = substrate: N[C@@H](CCC(=O)N[C@@H](CSS)C(=O)NCC(=O)O)C(=O)O; remark: listed apart in the source
Excerpt: oxygen consumption, Clark-type oxygen electrode (Oxytherm) on Del-3

[5] = substrate: N[C@@H](CCC(=O)N[C@@H](CSS)C(=O)NCC(=O)O)C(=O)O; remark: listed apart in the source
Excerpt: oxygen consumption, Clark-type oxygen electrode (Oxytherm) on Del-4

[6] = substrate: N[C@@H](CCC(=O)N[C@@H](CSS)C(=O)NCC(=O)O)C(=O)O; remark: listed apart in the source
Excerpt: oxygen consumption, Clark-type oxygen electrode (Oxytherm) on U. unicinctus SDO (complete ORF, wild type)

B1: U. unicinctus SDO (complete ORF, wild type) (Urechis unicinctus; D117E/H118A) (protein)
chain: MLSSVCGSLRRTLCNGSVLASKHPFLGRSNALKLETKPVCTRVMYRSYSANMHGQEVVFRQLFDNTSFTYTYLLGDAASKEAVLIDPVIELVDRDVRIVKELGLNLKYAVNTHVHAEAVTGTGEIKKRIPTCKSVIAECSQAKADVFINEGDGIEFGQFKLECRSTPGHTDGCFTYVWHEKGMAFTGDALLIRGCGRTDFQQGSSEALYKSVHGKILSLPEQFILYPAHDYTGQTSTTVREEKNHNPRLTKPIDVFIRIMSELNLPYPKQLDRALPANMVCGIFDTESPPSKS
Km [1]: 174.4 ± 16.8 µM

B2: Del-1 (Urechis unicinctus) (protein)
chain: MLSSVCGSLRRTLCNGSVLASKHPFLGRSNALKLETKPVCTRVMYRSYSANMHGQEVVFRQLFDNTSFTYTYLLGDAASKEAVLIDPVIELVDRDVRIVKELGLNL
notes: C-terminally truncated SDO, 318 bp from the start codon (106 residues, end calculated from printed size), lacks all metal sites
Km [2]: 218.9 ± 33.5 µM
Vmax [2]: 0.33 ± 0.014 µmol/min/mg
kcat [2]: 0.09 s⁻¹

B3: Del-2 (Urechis unicinctus) (protein)
chain: MLSSVCGSLRRTLCNGSVLASKHPFLGRSNALKLETKPVCTRVMYRSYSANMHGQEVVFRQLFDNTSFTYTYLLGDAASKEAVLIDPVIELVDRDVRIVKELGLNLKYAVNTHVHADHVTGTGEIKKRIPTCKSVIAECSQAKADVFINEGDGIEFGQF
notes: C-terminally truncated SDO, 477 bp from the start codon (159 residues, end calculated from printed size)
Km [3]: 137.0 ± 17.2 µM
Vmax [3]: 0.42 ± 0.024 µmol/min/mg
kcat [3]: 0.16 s⁻¹

B4: Del-3 (Urechis unicinctus) (protein)
chain: MLSSVCGSLRRTLCNGSVLASKHPFLGRSNALKLETKPVCTRVMYRSYSANMHGQEVVFRQLFDNTSFTYTYLLGDAASKEAVLIDPVIELVDRDVRIVKELGLNLKYAVNTHVHADHVTGTGEIKKRIPTCKSVIAECSQAKADVFINEGDGIEFGQFKLECRSTPGHTDGCFTYVWHEKGMAFTGDALLIRGCGRTDFQQGSS
notes: C-terminally truncated SDO, 615 bp from the start codon (205 residues, end calculated from printed size)
Km [4]: 104.6 ± 16.7 µM
Vmax [4]: 0.98 ± 0.065 µmol/min/mg
kcat [4]: 0.45 s⁻¹

B5: Del-4 (Urechis unicinctus) (protein)
chain: MLSSVCGSLRRTLCNGSVLASKHPFLGRSNALKLETKPVCTRVMYRSYSANMHGQEVVFRQLFDNTSFTYTYLLGDAASKEAVLIDPVIELVDRDVRIVKELGLNLKYAVNTHVHADHVTGTGEIKKRIPTCKSVIAECSQAKADVFINEGDGIEFGQFKLECRSTPGHTDGCFTYVWHEKGMAFTGDALLIRGCGRTDFQQGSSEALYKSVHGKILSLPEQFILYPAHDYTGQTSTTVREEKNHNPRLTKPI
notes: C-terminally truncated SDO, 759 bp from the start codon
Km [5]: 83.0 ± 10.9 µM
Vmax [5]: 1.23 ± 0.063 µmol/min/mg
kcat [5]: 0.68 s⁻¹

B6: U. unicinctus SDO (complete ORF, wild type) (Urechis unicinctus) (protein)
chain: B1 chain with E117D, A118H
Km [6]: 82.5 ± 9.9 µM
Vmax [6]: 1.74 ± 0.081 µmol/min/mg
kcat [6]: 1.09 s⁻¹
